Measurements as given in PMC12455010.

Tests used:
[1] = cell surface biotinylation, western blot; conditions: glycan lost
[2] = automated whole-cell patch clamp, inactivation width at +80 mV
[3] = whole-cell patch clamp in CHO; conditions: glycan lost; control: wild type
[4] = glycan changed form, control: untreated
[5] = glycan changed form, control: low glucose
[6] = glycan lost, control: wild type

B1: rat Kv3.4 (rKv3.4): tunicamycin (protein)
parent chain: MISSVCVSSYRGRKSGNKPPSKTCLKEEMAKGEASEKIIINVGGTRHETYRSTLRTLPGTRLAWLADPDGGGRPESDGGGAGSSGSSGGGGGCEFFFDRHPGVFAYVLNYYRTGKLHCPADVCGPLFEEELTFWGIDETDVEPCCWMTYRQHRDAEEALDIFESPDGGGGGAGPGDEAGDDERELALQRLGPHEGGSGPGAGSGGCRGWQPRMWALFEDPYSSRAARVVAFASLFFILVSITTFCLETHEAFNIDRNVTEIHRVGNITSVRFRREVETEPILTYIEGVCVMWFTLEFLVRIVCCPDTLDFVKNLLNIIDFVAILPFYLEVGLSGLSSKAARDVLGFLRVVRFVRILRIFKLTRHFVGLRVLGHTLRASTNEFLLLIIFLALGVLIFATMIYYAERIGARPSDPRGNDHTDFKNIPIGFWWAVVTMTTLGYGDMYPKTWSGMLVGALCALAGVLTIAMPVPVIVNNFGMYYSLAMAKQKLPKKRKKHVPRPPQLESPIYCKSEETSPRDSTYSDTSPPAREEGMVERKRADSKQNGDANAVLSDEEGAGLTQPLASAPTPEERRALRRSGTRDRNKKAAACFLLSAGDYACADGSVQKEGSVEPKACVPVSHTCAL
localisation_or_trafficking ([1]; control: untreated): no change | other: channel inactivation delay and its heterogeneity ([2]; glycan lost, control: untreated): decreases

B2: rat Kv3.4 (rKv3.4): kifunensine (Kf) (protein)
parent chain: B1 parent chain
other: channel inactivation delay and its heterogeneity [2, 4]: decreases

B3: rat Kv3.4 (rKv3.4): mannose recovery (protein)
parent chain: B1 parent chain
other: channel inactivation delay and its heterogeneity [2, 5]: increases

B4: rat Kv3.4 (rKv3.4): cytochalasin B (protein)
parent chain: B1 parent chain
other: channel inactivation delay and its heterogeneity [2, 4]: decreases

B5: rat Kv3.4 (rKv3.4): low-glucose medium (protein)
parent chain: B1 parent chain
other: channel inactivation delay and its heterogeneity [2, 4]: decreases

B6: rat Kv3.4 (rKv3.4): siGlut1 (protein)
parent chain: B1 parent chain
other: channel inactivation delay and its heterogeneity ([2]; glycan changed form, control: siNeg): decreases

B7: rat Kv3.4 (rKv3.4): N257/266Q (protein)
parent chain: B1 parent chain
localisation_or_trafficking ([1]; control: wild type): no change

B8: rat Kv3.4 (rKv3.4): N266Q (protein)
parent chain: B1 parent chain
other: channel current [3]: decreases | localisation_or_trafficking ([1]; control: wild type): no change | other: channel inactivation delay and its heterogeneity [2, 6]: decreases

B9: rat Kv3.4 (rKv3.4): swainsonine (Sw) (protein)
parent chain: B1 parent chain
other: channel inactivation delay and its heterogeneity [2, 4]: decreases

B10: rat Kv3.4 (rKv3.4): glucose recovery (protein)
parent chain: B1 parent chain
other: channel inactivation delay and its heterogeneity [2, 5]: increases

B11: rat Kv3.4 (rKv3.4): N257Q (protein)
parent chain: B1 parent chain
other: channel current [3]: decreases | localisation_or_trafficking ([1]; control: wild type): no change | other: channel inactivation delay and its heterogeneity [2, 6]: decreases
